Measurements from patent US20230321261A1, “AXL-SPECIFIC ANTIBODY-DRUG CONJUGATES FOR CANCER TREATMENT” (GENMAB A/S, priority 2016, published 2023).
Substitutions are numbered along the chain they refer to. In names and notes the source's numbering stands.

B1: IgG1-AXL-148: AXL-specific human IgG1,κ antibody, VH SEQ ID NO:5, VL SEQ ID NO:6, Ig2 domain binding (antibody, listed as Homo sapiens, V domains shown)
VH: EVQLLESGGGLVQPGGSLRLSCAASGFTFSSYAMTWVRQAPGKGLEWVSAISISGGSTFYADSVKGRFTISRDNSKNTLYLQMNSLRAEDTAVYYCRGYSGYVYDAFDFWGQGTMVTVSS
VL: DIQMTQSPSSLSASVGDRVTITCRASQGISNWLAWYQQKPEKAPKSLIYAASSLQSGVPSRFSGSGSGTDFTLTISSLQPEDFATYYCQQYNSYPLTFGGGTKVEIK
B2: IgG1-AXL-726: AXL-specific human IgG1,κ antibody, VH SEQ ID NO:31, VL SEQ ID NO:33, FN2 domain binding (antibody, listed as Homo sapiens, V domains shown)
VH: QVQLQQWGAGLLKPSETLSLTCAIDGGSFSGYYWSWIRQPPGKGLEWIGEISHSGRTNYNPSLKSRVTISIDTSKNQFSLKLSSVAAADTAVYYCARFITMIRGAIITHFDYWGQGALVTVSS
VL: B1 VL with N31S, N92H, L96Y, G100Q, V104L
B3: IgG1-AXL-726-M101L: point mutant of IgG1-AXL-726, VH SEQ ID NO:32, VL SEQ ID NO:33 (antibody, listed as Homo sapiens, V domains shown)
VH: B2 VH with M101L
VL: B1 VL with N31S, N92H, L96Y, G100Q, V104L
B4: IgG1-AXL-733: AXL-specific human IgG1,κ antibody, VH SEQ ID NO:34, VL SEQ ID NO:35, FN1 domain binding (antibody, listed as Homo sapiens, V domains shown)
VH: QVQLVESGGGVVQPGRSLRLSCAASGFSFSTYAMHWVRQAPGKGLEWVAVISYDGDNKYSADSVKGRFTISRDNSKNTLYLQMNSLRAEDTAVYYCARGRKLGIDAFDIWGQGTMVTVSS
VL: AIQLTQSPSSLSASVGDRVTITCRASQGISSALAWYQQKPGKAPKLLIYDASSLESGVPSRFSGSGSGTDFTLTISGLQPEDFATYYCQQFNSYPFTFGPGTKVDIK

How the values were obtained:
[1] = target: T1, AXLECDHis (extracellular domain of human AXL) (Homo sapiens, UniProt P30530); experiment: Binding affinity by Bio-Layer Interferometry (ForteBio OctetRED384); conditions: 1:1 model, 30° C.
T1 construct: the extracellular domain (ECD) of human AXL (aa 1-447) with a C-terminal His tag (AXLECDHis); His tag (C); made in house; host or cells: HEK-293F

[2] = target: T2, full length human AXL (Homo sapiens, UniProt P30530); experiment: Flow cytometry binding to transfected HEK293T cells; conditions: at least 3 experiments
T2 construct: expression constructs for full length human AXL; expressed in transfected cells; host or cells: HEK293T
Procedure: HEK293T cells were transiently transfected with expression constructs for full length human AXL, human AXL with a cynomolgus monkey extracellular domain (ECD) or human AXL with a mouse ECD (see Example 1). Binding of HuMab-AXL antibodies to these cells was evaluated by flow cytometry. Transfected HEK293 cells were incubated with serial dilutions of AXL-antibodies (final concentration range 0.0024-10 µg/mL) for 30 minutes at 4° C. […] Next, cells were washed twice in PBS/0.1% BSA/0.02% azide, resuspended in 120 µL PBS/0.1% BSA/0.02% azide and analyzed on a FACS Cantoll (BD Biosciences).
(§1) Binding curves were analyzed using non-linear regression (sigmoidal dose-response with variable slope) using GraphPad Prism V5.04 software (GraphPad Software, San Diego, CA, USA).

[3] = target: T3, human AXL with a cynomolgus monkey extracellular domain (ECD) (Homo sapiens, UniProt P30530, P441T/S191N/S285L/T105A/T112A/T125N/T443A); experiment: as above; conditions: at least 3 experiments
T3 construct: aa 1-447); human AXL transmembrane and intracellular part (the remainder of human AXL after the ECD; expressed in transfected cells; host or cells: HEK293T

[4] = target: T4, AXL on A431 cells (Homo sapiens, UniProt P30530); experiment: Antibody binding to A431 cells with or without Gas6 pre-incubation; conditions: for Antibody binding to A431 cells: EC50 in presence of Gas6 (µg/mL) mean (s.d.) / Antibody binding to A431 cells: Maximal binding in presence of Gas6 (% of binding in absence of Gas6) mean (s.d.): pre-incubation with 10 µg/mL Gas6; for Antibody binding to A431 cells: EC50 w/o Gas6 (µg/mL) mean (s.d.): without Gas6 pre-incubation
T4 construct: AXL-positive A431 cells were incubated; endogenous in cells; host or cells: A431

[5] = target: T5, Gas6 binding to AXL on A431 cells (Homo sapiens, UniProt P30530); experiment: Gas6 binding to A431 cells pre-incubated with AXL antibodies; conditions: pre-incubation with 10 µg/mL antibody; control antibody b12
T5 construct: endogenous in cells; host or cells: A431
Procedure: Alternatively, A431 cells were pre-incubated with 10 µg/mL AXL antibodies (15 minutes, 4° C.) to assess if the AXL ligand Gas6 could still bind in presence of AXL antibodies. […] After washing three times in PBS/0.1% BSA/0.02% azide, cells were incubated with mouse anti-Gas6 IgG2a (R&D Systems; cat no. MAB885) at 4° C. for 30 min. After washing three times in PBS/0.1% BSA/0.02% azide, cells were incubated with FITC-labelled goat anti-mouse IgG (Dako, Heverlee, Belgium; cat no. F049702) at 4° C. for 30 min in the dark. Next, cells were washed twice in PBS/0.1% BSA/0.02% azide, resuspended in 120 µL PBS/0.1% BSA/0.02% azide and analyzed on a FACS Cantoll (BD Biosciences).
as §1
Therefore, binding of Gas6 to A431 cells that had been pre-incubated with 10 µg/mL AXL antibodies was tested as described in Example 2.

[6] = target: T6, human-mouse chimeric AXL mutants (Homo sapiens, UniProt P30530, A151P/A183V/D170T/D266N/G187S/H193Q/P184T/P188S/R148K/R190H/T149A/T182P/V194T); experiment: AXL domain specificity using human-mouse AXL chimeric molecules (flow cytometry); assay type: binding; conditions: 1 µg/mL antibody
T6 construct: constructs for expression of various full-length AXL variants were generated; expressed in transfected cells; host or cells: HEK293F

[7] = system: A431 cells; experiment: Antibody-dependent cell-mediated cytotoxicity (51Cr release); assay type: cell-based, human; conditions: concentrations up to 10 µg/mL; PBMC effector to target ratio 100:1
Procedure: The ability of anti-AXL antibodies to induce ADCC of A431 epidermoid carcinoma cells was determined as explained below. As effector cells, peripheral blood mononuclear cells from healthy volunteers (UMC Utrecht, The Netherlands) were used.
A431 cells were collected (5×10^6 cells) in culture medium (RPMI 1640 culture medium supplemented with 10% fetal calf serum (FSC)), to which 100 µCi ^51Cr (Chromium-51; Amersham Biosciences Europe GmbH, Roosendaal, The Netherlands) had been added, and the mixture was incubated in a 37° C. water bath for 1 hour (hr) while shaking. After washing of the cells (twice in PBS, 1200 rpm, 5 min), the cells were resuspended in RPMI1640/10% FSC and counted by trypan blue exclusion. […]
Peripheral blood mononuclear cells (healthy volunteers, UMC Utrecht, Utrecht, The Netherlands) were isolated from 45 mL of freshly drawn heparin blood by Ficoll (Bio Whittaker; lymphocyte separation medium, cat 17-829E) according to the manufacturer’s instructions. After resuspension of cells in RPMI1640/10% FSC, cells were counted by trypan blue exclusion and diluted to a density of 1×10^7 cells/mL.
50 µl of ^51Cr-labeled targets cells were pipetted into 96-well plates, and 50 µl of antibody were added, diluted in RPMI1640/10% FSC (3-fold dilutions at final concentrations range 0.01-10 µg/mL). […] The percentage specific lysis was calculated as follows: […]

[8] = target: T7, human AXL transiently expressed by HEK-293F cells (Homo sapiens, UniProt P30530); experiment: Homogeneous antigen specific screening assay (FMAT); assay type: binding
T7 construct: TH1021-AXL (HEK-293F cells transiently expressing full length human AXL; produced as described above); expressed in transfected cells; host or cells: HEK-293F

[9] = system: PAXF1657 tumors; experiment: PAXF1657 pancreas cancer PDX model; assay type: in vivo, NMRI nu/nu mice; conditions: mouse, in vivo
[10] = target: T8, human-mouse chimeric AXL mutants (Homo sapiens, UniProt P30530, A349V/A358V/A407T/A411S/A425P/A431G/C405S/D266N/F350L/G397R/H352R/I340V/K439S/P444R/Q372R/Q387R/Q394R/Q436H/R386T/S398P/S400A/S442P/T343M/T443P/V434L); experiment: AXL domain specificity using human-mouse AXL chimeric molecules (flow cytometry); assay type: binding; conditions: 1 µg/mL antibody
T8 construct: constructs for expression of various full-length AXL variants were generated; expressed in transfected cells; host or cells: HEK293F

[11] = target: T9, human-mouse chimeric AXL mutants (Homo sapiens, UniProt P30530, A273L/A287V/A310S/E275K/E281D/G297E/H300L/L233V/M269V/N230H/P276S/P329T/Q227R/Q272W/R229H/S285L/S298K/S319P/T259N/T312S/V309I); experiment: as above; assay type: binding; conditions: 1 µg/mL antibody
T9 construct: constructs for expression of various full-length AXL variants were generated; expressed in transfected cells; host or cells: HEK293F

Molecule	Binding affinity (OCTET) Kdis [1] [s⁻¹]	Binding affinity (OCTET) Kon [1] [M⁻¹ s⁻¹]	Binding EC50 (µg/mL) human AXL Average (s.d.) [2]	Binding EC50 (µg/mL) cynomolgus AXL Average (s.d.) [3]	Antibody binding to A431 cells: EC50 in presence of Gas6 (µg/mL) mean (s.d.) [4]	Antibody binding to A431 cells: Maximal binding in presence of Gas6 (% of binding in absence of Gas6) mean (s.d.) [4]	Antibody binding to A431 cells: EC50 w/o Gas6 (µg/mL) mean (s.d.) [4]	Gas6 binding to A431 cells: Maximal binding in presence of AXL antibodies (% of binding in presence of control antibody) mean (s.d.) [5]	binding to hsAXL-mmIg2 [6]	ADCC in A431 cells (percentage specific lysis) [7]	Maximal binding (Arbitrary units) [8] [Arbitrary units]	anti-tumor activity in the PAXF1657 model (FIG. 10B, 10C) [9]	binding to hsAXL-mmFN2 [10]	binding to hsAXL-mmFN1 [11]
B1	0.0044	230000	0.094 (0.059) µg/mL	0.152 (0.080) µg/mL	0.20 (0.30) µg/mL	93 (5) %	0.11 (0.13) µg/mL	106 (7) %	strongly reduced binding	did not induce significant ADCC	3499	did not result in anti-tumor activity		
B2	0.00013	240000	0.288 (0.206) µg/mL	0.349 (0.160) µg/mL	0.55 (0.69) µg/mL	97 (10) %	0.32 (0.35) µg/mL	98 (10) %			3154		lost	
B3	6.9e-05		0.184 (0.117) µg/mL	0.250 (0.066) µg/mL						did not induce significant ADCC				
B4	0.0097	160000	0.176 (0.094) µg/mL	0.254 (0.114) µg/mL	0.62 (0.23) µg/mL	93 (5) %	0.49 (0.51) µg/mL	96 (5) %						reduced binding
